Results on one molecule are retold here after article PMC6426468 (Science Advances, 2019).

The target in one test is T1, GST–prelamin A (human, UniProt P02545 1-664).
T1 sequence (looked up): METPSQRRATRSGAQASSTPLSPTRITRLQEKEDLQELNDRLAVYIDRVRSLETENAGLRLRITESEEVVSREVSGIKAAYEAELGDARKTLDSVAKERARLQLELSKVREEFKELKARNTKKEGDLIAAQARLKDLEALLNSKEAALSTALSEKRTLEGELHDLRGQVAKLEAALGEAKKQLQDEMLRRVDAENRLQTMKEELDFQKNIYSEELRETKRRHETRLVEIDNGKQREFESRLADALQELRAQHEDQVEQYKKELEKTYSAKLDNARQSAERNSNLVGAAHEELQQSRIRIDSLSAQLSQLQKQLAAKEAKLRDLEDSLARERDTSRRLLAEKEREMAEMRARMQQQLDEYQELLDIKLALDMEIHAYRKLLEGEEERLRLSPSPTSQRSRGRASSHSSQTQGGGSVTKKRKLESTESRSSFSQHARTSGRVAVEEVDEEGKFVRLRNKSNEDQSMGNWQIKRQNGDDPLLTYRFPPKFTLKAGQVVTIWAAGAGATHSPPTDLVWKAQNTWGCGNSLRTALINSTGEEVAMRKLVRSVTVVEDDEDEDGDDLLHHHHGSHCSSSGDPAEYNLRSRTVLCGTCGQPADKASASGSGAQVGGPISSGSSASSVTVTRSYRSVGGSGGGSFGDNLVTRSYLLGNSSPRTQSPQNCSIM
The test can be described thus: pull-down.

Another test has as its target T2, GST–lamin A (human, UniProt P02545 1-646).
T2 sequence (looked up): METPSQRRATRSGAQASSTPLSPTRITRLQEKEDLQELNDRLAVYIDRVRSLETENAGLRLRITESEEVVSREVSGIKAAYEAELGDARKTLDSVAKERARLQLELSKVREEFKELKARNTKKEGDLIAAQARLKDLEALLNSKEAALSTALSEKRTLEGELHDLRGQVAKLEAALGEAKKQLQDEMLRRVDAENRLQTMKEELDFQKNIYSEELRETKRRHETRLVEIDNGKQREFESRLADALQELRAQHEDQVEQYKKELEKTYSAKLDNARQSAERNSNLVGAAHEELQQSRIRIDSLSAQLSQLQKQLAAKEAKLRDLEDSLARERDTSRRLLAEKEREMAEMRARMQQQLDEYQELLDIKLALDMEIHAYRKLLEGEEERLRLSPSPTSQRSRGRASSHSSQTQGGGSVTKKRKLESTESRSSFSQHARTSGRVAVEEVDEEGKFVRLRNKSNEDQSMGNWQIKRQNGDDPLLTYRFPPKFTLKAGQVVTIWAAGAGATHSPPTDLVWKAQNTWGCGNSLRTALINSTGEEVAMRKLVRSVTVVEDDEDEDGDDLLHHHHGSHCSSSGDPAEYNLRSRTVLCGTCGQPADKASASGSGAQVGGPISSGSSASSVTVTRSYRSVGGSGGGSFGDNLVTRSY
As to the kind of experiment: pull-down.

B1: CK2β (in vitro pull-down) (natural protein)
chain: not shown
Consider B1, for which the binding result in the test with GST–prelamin A and with GST–lamin A was “binds” each time.
